Key:
[1] = target: VqmA-FLAG (Vibrio cholerae); experiment: non-reducing SDS-PAGE with anti-FLAG immunoblot (disulfide-linked dimer); cells treated 1 h with 25 μM DPO, in the presence or absence of O2; lysate boiled in SDS-PAGE buffer without BME
[2] = target: VqmA-FLAG (Vibrio cholerae)
[3] = test system: 6xHis-VqmA C134A (Vibrio cholerae C6706?); experiment: EMSA
[4] = test system: 6xHis-VqmA WT (Vibrio cholerae C6706?); experiment: EMSA

Row | Substance | percent of Holo-VqmA with the intermolecular C134-C134 disulfide bond [1] | stoichiometry N [1] | vqmR-lacZ reporter activity in ΔvqmA Δtdh V. cholerae carrying pvqmA-FLAG, with 25 μM DPO, with against without DTT [2] | binding signal (fold reduction vs DTT-treated P2) [3] | binding signal (fold more potent than diamide-treated P2) [4]
1 | VqmA-FLAG (natural protein) | 40 to 50% | 2 | 6 fold |  | 
2 | vqmR promoter DNA (PvqmR) |  |  |  | 4 | 2

From article PMC7387800
